Laboratory results published in US20250092426, “CAS ENDONUCLEASES AND RELATED METHODS” (Flagship Pioneering Innovations VII, LLC, published 2025).

Target: T1, CasEnd-24 (synthetic construct)
T1 chain: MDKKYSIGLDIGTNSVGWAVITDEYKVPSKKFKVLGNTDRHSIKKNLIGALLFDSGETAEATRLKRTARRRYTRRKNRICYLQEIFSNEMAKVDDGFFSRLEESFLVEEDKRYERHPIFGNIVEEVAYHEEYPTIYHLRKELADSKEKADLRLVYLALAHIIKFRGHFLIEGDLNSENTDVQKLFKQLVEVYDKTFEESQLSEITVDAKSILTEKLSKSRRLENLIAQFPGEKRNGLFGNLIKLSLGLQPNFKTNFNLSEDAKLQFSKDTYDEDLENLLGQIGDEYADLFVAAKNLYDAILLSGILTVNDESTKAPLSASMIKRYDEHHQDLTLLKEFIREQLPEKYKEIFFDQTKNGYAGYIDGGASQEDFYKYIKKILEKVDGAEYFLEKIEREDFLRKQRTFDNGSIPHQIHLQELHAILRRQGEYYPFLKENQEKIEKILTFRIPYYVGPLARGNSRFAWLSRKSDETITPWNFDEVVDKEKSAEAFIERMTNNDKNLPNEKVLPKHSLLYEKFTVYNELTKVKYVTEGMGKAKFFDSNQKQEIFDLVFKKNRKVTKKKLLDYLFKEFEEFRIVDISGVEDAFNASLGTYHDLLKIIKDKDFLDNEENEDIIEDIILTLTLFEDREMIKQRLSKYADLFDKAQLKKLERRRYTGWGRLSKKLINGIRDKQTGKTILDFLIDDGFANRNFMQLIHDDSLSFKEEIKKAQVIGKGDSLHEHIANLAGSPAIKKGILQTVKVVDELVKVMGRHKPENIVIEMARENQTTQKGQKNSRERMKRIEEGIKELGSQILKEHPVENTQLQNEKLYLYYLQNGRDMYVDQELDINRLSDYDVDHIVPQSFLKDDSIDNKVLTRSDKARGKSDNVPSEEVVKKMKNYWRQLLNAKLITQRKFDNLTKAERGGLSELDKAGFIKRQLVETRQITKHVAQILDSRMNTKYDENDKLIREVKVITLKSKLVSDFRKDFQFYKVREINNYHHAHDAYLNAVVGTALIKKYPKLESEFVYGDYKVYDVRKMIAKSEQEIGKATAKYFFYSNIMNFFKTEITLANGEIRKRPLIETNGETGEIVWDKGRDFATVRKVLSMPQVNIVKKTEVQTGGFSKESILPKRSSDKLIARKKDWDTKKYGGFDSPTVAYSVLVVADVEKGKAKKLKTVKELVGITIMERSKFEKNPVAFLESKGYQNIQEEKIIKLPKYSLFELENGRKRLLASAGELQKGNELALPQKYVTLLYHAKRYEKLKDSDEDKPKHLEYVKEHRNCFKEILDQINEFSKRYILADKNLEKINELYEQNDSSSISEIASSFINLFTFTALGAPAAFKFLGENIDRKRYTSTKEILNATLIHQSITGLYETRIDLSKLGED
Test: cell_activity; +++; HEK293T; PAM not stated
Outline: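 Editing activity was scored as the fraction of GFP+ cells on day 4 by flow cytometry. BFP-expressing HEK293T cells (250,000) received by nucleofection 200 ng plasmid for the RT-Cas fusion protein and 200 ng template RNA plasmid designed to convert BFP to GFP.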

B1: BFP-to-GFP template RNA ; BFP reporter protospacer (ssRNA ; dsDNA)
RNA: GCCGAAGCACUGCACGCCGUGUUUUAGAGCUAGAAAUAGCAAGUUAAAAUAAGGCUAGUCCGUUAUCAACUUGAAAAAGUGGCACCGAGUCGGUGCACCCUGACGUACGGCGUGCAGUGCUU
DNA 1: GCCGAAGCACTGCACGCCGT
DNA 2: ACGGCGTGCAGTGCTTCGGC
In the case of B1, the activity is reported as ≥ 100 % of reference.
